Data from the supplement of paper PMC9112550, “Optimization of the antimicrobial peptide Bac7 by deep mutational scanning” (BMC Biology, 2022).

System: Escherichia coli TOP10
Test: shrunken log2 fold change of peptide-encoding DNA abundance (4.5 h post-induction vs induction); higher = less antimicrobial activity (less host growth inhibition)
Conditions: time post-induction: 4.5 h; library: site-saturation at positions 5, 18, 19, 20
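Note: peptides expressed intracellularly from a pBAD plasmid library in pooled LB shake-flask culture, induced with 0.3% L-arabinose, DNA abundance read by NGS, three biological replicates, DESeq2 with apeglm shrinkage.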

Sequence	shrunken log2 fold change
RRIRNRPPRLPRPRPRPNMVPRP	-0.385
RRIRVRPPRLPRPRPRPFSWPRP	-0.144
RRIRTRPPRLPRPRPRPCIAPRP	-0.226
RRIRERPPRLPRPRPRPRDVPRP	0.0772
RRIRCRPPRLPRPRPRPAILPRP	-0.659
RRIRWRPPRLPRPRPRPGRPPRP	0.42
RRIRKRPPRLPRPRPRPFWCPRP	-0.0466
RRIRMRPPRLPRPRPRPMLCPRP	0.049
RRIRCRPPRLPRPRPRPWHEPRP	-0.0591
RRIRTRPPRLPRPRPRPWFKPRP	-0.214
RRIRWRPPRLPRPRPRPYKIPRP	-0.286
RRIRLRPPRLPRPRPRPLMSPRP	-0.0608
RRIRVRPPRLPRPRPRPYMGPRP	-0.895
RRIRPRPPRLPRPRPRPGREPRP	2.45
RRIRHRPPRLPRPRPRPVMTPRP	-0.496
RRIRARPPRLPRPRPRPSWDPRP	0.244
RRIRRRPPRLPRPRPRPPCMPRP	0.404
RRIRERPPRLPRPRPRPSELPRP	0.0285
RRIRKRPPRLPRPRPRPDCIPRP	0.75
RRIRDRPPRLPRPRPRPPRTPRP	0.389
RRIRTRPPRLPRPRPRPAKDPRP	-0.399
RRIRNRPPRLPRPRPRPYLAPRP	-0.327
RRIRTRPPRLPRPRPRPGDEPRP	0.195

Sequence	shrunken log2 fold change
RRIRSRPPRLPRPRPRPKKFPRP	-0.222
RRIRWRPPRLPRPRPRPCGHPRP	0.108
RRIRWRPPRLPRPRPRPFEGPRP	-0.0062
RRIRQRPPRLPRPRPRPHRKPRP	-0.227
RRIRERPPRLPRPRPRPMRAPRP	0.763
RRIRSRPPRLPRPRPRPNGCPRP	-0.0491
RRIRGRPPRLPRPRPRPAPVPRP	0.925
RRIRKRPPRLPRPRPRPNMNPRP	0.394
RRIRARPPRLPRPRPRPGMFPRP	0.295
RRIRYRPPRLPRPRPRPTSKPRP	0.902
RRIRNRPPRLPRPRPRPVERPRP	0.265
RRIRVRPPRLPRPRPRPGRWPRP	0.649
RRIRVRPPRLPRPRPRPNLSPRP	-0.444
RRIRLRPPRLPRPRPRPHLLPRP	-0.0156
RRIRRRPPRLPRPRPRPYMHPRP	-0.451
RRIRSRPPRLPRPRPRPNDLPRP	-0.23
RRIRHRPPRLPRPRPRPIMLPRP	-0.389
RRIRHRPPRLPRPRPRPHKQPRP	-0.225
RRIRLRPPRLPRPRPRPNRNPRP	-0.884
RRIRCRPPRLPRPRPRPSFEPRP	-0.508
RRIRKRPPRLPRPRPRPVDSPRP	0.134
RRIRNRPPRLPRPRPRPRTFPRP	-0.078
RRIRCRPPRLPRPRPRPVDRPRP	0.0626

Sequence	shrunken log2 fold change
RRIRIRPPRLPRPRPRPWPWPRP	0.0338
RRIRDRPPRLPRPRPRPMWWPRP	-0.0122
RRIRDRPPRLPRPRPRPVHRPRP	0.0594
RRIRIRPPRLPRPRPRPFNFPRP	-0.31
RRIRERPPRLPRPRPRPKENPRP	-0.135
RRIRQRPPRLPRPRPRPLAEPRP	-0.0181
RRIRNRPPRLPRPRPRPEYCPRP	0.00705
RRIRFRPPRLPRPRPRPCRVPRP	-0.129
RRIRKRPPRLPRPRPRPGVCPRP	0.87
RRIRHRPPRLPRPRPRPDWGPRP	0.0592
RRIRFRPPRLPRPRPRPYFWPRP	-0.241
RRIRSRPPRLPRPRPRPRHHPRP	-0.163
RRIRMRPPRLPRPRPRPKDGPRP	-0.0156
RRIRYRPPRLPRPRPRPMKCPRP	-0.905
RRIRNRPPRLPRPRPRPVYSPRP	-0.252
RRIRLRPPRLPRPRPRPTTRPRP	0.34
RRIRKRPPRLPRPRPRPMVYPRP	-0.0451
RRIRTRPPRLPRPRPRPSTDPRP	0.201
RRIRMRPPRLPRPRPRPIPGPRP	0.105
RRIRTRPPRLPRPRPRPEVVPRP	0.292
RRIRSRPPRLPRPRPRPHHNPRP	-0.708
RRIRWRPPRLPRPRPRPDVEPRP	0.182
RRIRHRPPRLPRPRPRPVTVPRP	-0.179

Sequence	shrunken log2 fold change
RRIRFRPPRLPRPRPRPAYWPRP	0.21
RRIRVRPPRLPRPRPRPIVIPRP	0.0265
RRIRCRPPRLPRPRPRPPVQPRP	0.652
RRIRLRPPRLPRPRPRPEPFPRP	-0.0343
RRIRYRPPRLPRPRPRPHIEPRP	-1.47
RRIRPRPPRLPRPRPRPPFEPRP	0.596
RRIRGRPPRLPRPRPRPVEWPRP	0.0602
RRIRDRPPRLPRPRPRPNIFPRP	-0.0871
RRIRHRPPRLPRPRPRPFGGPRP	-0.0398
RRIRNRPPRLPRPRPRPVRQPRP	0.0327
RRIRERPPRLPRPRPRPWTRPRP	-0.0974
RRIRCRPPRLPRPRPRPVGCPRP	0.204
RRIRARPPRLPRPRPRPLCGPRP	0.467
RRIRMRPPRLPRPRPRPKAIPRP	0.417
RRIRGRPPRLPRPRPRPRNSPRP	0.114
RRIRQRPPRLPRPRPRPKDVPRP	0.00879
RRIRERPPRLPRPRPRPICQPRP	0.00158
RRIRARPPRLPRPRPRPDFGPRP	0.106
RRIRARPPRLPRPRPRPEYAPRP	0.672
RRIRERPPRLPRPRPRPLCDPRP	1.81
RRIRARPPRLPRPRPRPKIPPRP	0.174
RRIRNRPPRLPRPRPRPWPAPRP	0.0494
